Source: article PMC10624354

Target: T1, PIF4 (Arabidopsis thaliana, UniProt Q8W2F3 1-430)
T1 sequence: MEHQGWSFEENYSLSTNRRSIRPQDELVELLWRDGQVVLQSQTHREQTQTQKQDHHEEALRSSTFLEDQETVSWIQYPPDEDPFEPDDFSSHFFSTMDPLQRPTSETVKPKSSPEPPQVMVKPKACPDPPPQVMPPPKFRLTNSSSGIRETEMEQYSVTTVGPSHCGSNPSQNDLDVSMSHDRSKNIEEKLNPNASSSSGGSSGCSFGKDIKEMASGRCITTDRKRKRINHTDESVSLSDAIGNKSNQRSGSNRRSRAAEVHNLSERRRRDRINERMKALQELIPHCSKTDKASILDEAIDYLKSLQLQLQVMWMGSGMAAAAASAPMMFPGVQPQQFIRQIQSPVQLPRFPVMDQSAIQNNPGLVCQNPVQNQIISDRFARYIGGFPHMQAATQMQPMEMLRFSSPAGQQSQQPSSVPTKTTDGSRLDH
Assay: EMSA

B1: YUC8pro (WT) (dsDNA)
DNA 1: TCTTTTTCTTCCCCACGTGGCTTCCTCTCGTTGGTCCCACAA
DNA 2: TTGTGGGACCAACGAGAGGAAGCCACGTGGGGAAGAAAAAGA
binding result: binds
